{"source": "patent US7612163B1", "about": "“Prokineticin 2β peptide and its use” (Janssen Pharmaceutica N.V., priority 2004, dated 2009)", "key": {"[1]": {"molecular_target": "T1, human prokineticin receptor 1 (PKR1) (human, UniProt Q8TCW9 1-393)", "T1 construct": "whole, on cells", "T1 sequence (Q8TCW9 whole entry)": "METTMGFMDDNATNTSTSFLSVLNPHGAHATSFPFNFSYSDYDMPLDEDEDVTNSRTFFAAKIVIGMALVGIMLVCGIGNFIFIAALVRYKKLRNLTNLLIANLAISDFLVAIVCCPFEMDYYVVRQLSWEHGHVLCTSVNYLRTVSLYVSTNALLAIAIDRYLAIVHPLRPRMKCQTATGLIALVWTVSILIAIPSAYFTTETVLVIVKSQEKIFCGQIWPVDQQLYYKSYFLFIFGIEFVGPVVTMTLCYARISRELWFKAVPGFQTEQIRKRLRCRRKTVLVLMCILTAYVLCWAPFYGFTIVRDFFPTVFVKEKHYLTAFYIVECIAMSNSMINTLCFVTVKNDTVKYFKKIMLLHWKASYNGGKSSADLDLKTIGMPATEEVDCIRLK", "test": "radioligand competition against 100 pM 125I-PK2-f on COS-7 cells expressing PKR1", "method": "(§1) Radio-Ligand Binding Assays. PKR1 and PKR2 in the expression vector pCIneo (Promega) were transfected into COS-7 cells using LipofectAmine (Invitrogen). Two days after transfection, cells were detached from the culture dishes by 10 mM EDTA in PBS, washed with Dulbecco's Modified Eagle's Medium (DMEM) and seeded in 96-well opaque polylysine-coated plates (BD Biosciences, San Jose, Calif.) at a density of 50,000 cells per well. […] The binding assays were performed in DMEM plus 50 mM HEPES, pH 7.2 and 1% bovine serum albumin in a final volume of 100 µl. The binding assays were carried out at room temperature for 1 hour. After the plates were washed three times with ice cold PBS, Microscint-40 (Packard, Meriden, Conn.) was added and the plates were counted on a Topcount (Packard).\n(§2) Different concentrations of PK1, PK2 or PK2β were added to the assays as the competitors. All assays were performed in triplicates. The results are mean values (±S.E.M) of triplicates. Figure 4B:\n(§3) Prokineticins bind PKR1 and PKR2 with different affinities. With the purified PK2β available, it was investigated whether PK2β binds PKR1 or PKR2 in comparison with PK1 and PK2. […] Membranes from COS-7 cells transiently expressing PKR1 and PKR2 were used in competition binding assays. The results (FIG. 4A) indicate that PK1, PK2, and PK2β all bind PKR1 with high affinities, with the rank order of potency PK2>PK2β≅PK1."}, "[2]": {"molecular_target": "T2, human prokineticin receptor 2 (PKR2) (human, UniProt Q8NFJ6 1-384)", "T2 construct": "whole, on cells", "T2 sequence (Q8NFJ6 whole entry)": "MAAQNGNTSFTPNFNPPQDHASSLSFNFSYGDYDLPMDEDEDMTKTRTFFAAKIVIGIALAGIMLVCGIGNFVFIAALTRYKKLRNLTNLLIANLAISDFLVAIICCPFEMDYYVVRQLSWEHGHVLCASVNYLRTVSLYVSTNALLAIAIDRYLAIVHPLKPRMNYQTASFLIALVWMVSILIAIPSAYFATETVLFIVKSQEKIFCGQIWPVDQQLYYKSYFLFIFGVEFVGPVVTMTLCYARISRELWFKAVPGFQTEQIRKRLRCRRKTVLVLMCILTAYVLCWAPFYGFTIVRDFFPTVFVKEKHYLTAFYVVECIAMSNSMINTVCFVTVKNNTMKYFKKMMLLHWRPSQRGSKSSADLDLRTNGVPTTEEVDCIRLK", "test": "radioligand competition against 100 pM 125I-PK2-f on COS-7 cells expressing PKR2", "method": "as §1, §2, §3"}, "[3]": {"molecular_target": "T1, human prokineticin receptor 1 (PKR1)", "test": "cell-based or functional assay"}, "[4]": {"molecular_target": "T2, human prokineticin receptor 2 (PKR2)", "test": "cell-based or functional assay"}, "[5]": {"molecular_target": "T1, human prokineticin receptor 1 (PKR1)", "test": "cell-based or functional assay", "remark": "listed apart in the source"}, "[6]": {"molecular_target": "T2, human prokineticin receptor 2 (PKR2)", "test": "cell-based or functional assay", "remark": "listed apart in the source"}, "[7]": {"molecular_target": "T2, human prokineticin receptor 2 (PKR2)", "test": "radioligand binding on PKR2 expressing cells"}, "[8]": {"molecular_target": "T1, human prokineticin receptor 1 (PKR1)", "test": "radioligand binding on PKR1 expressing cells"}, "PKR2 [9]": {"molecular_target": "T3, PKR2 (Homo sapiens, UniProt Q8NFJ6)", "T3 sequence (Q8NFJ6 whole entry)": "as above", "test": "cAMP accumulation (cAMP [125I] FlashPlate) in HEK 293 cells co-expressing PKR2/Gs", "assay_type": "cell-based", "design": "The full-length cDNA coding regions for both PKR1 and PKR2 were PCR-amplified from human fetal brain cDNA; expressed in transfected cells; host or cells: HEK293 (transient, pCIneo, co-transfected with Gs plasmid)", "settings": "FIG. 8C", "method": "FIGS. 8B and 8C illustrate results from HEK 293 cells co-expressing PKR1/Gs (FIG. 8B) or PKR2/Gs (FIG. 8C) stimulated with different PKs at various concentrations (the accumulated cAMP was measured by a cAMP [^125I] FlashPlate Assay kit; the results are mean values (±S.E.M) of triplicate experiments (legend: ▪, PK1; ▴, PK2; ▾, PK2β)).\nIn a different experiment, PKR1 and PKR2 in the expression vector pCIneo (Promega) were co-transfected with the Gs expression plasmid into HEK293 cells using LipofectAmine (Invitrogen). Two days after transfection, cells were detached with 10 mM EDTA in PBS, resuspended in Dulbecco's Modified Eagle's Medium/F12 (DMEM/F12) media, and then plated on 96-well plates at a density of 50,000 cells per well. Two hours after the seeding, cells culture medium was replaced with DMEM/F12 containing 2 mM isobutylmethylxanthine (Sigma) and incubated for 30 min. Different concentrations of PK1, PK2 or PK2β were added to cells and incubated for an additional 30 min in a final volume of 200 μl/well. The reaction was stopped and cAMP was extracted by adding 20 μl of 0.5 N HCl to each well. Cell culture media were tested for cAMP concentrations by the cAMP [^125I] FlashPlate Assay kit (PerkinElmer) as described by the manufacturer."}, "PKR2 [10]": {"molecular_target": "T3, PKR2", "test": "Radioligand competition binding assay (125I-PK2-f), PKR2 expressing COS-7 cells", "design": "The full-length cDNA coding regions for both PKR1 and PKR2 were PCR-amplified from human fetal brain cDNA; expressed in transfected cells; host or cells: COS-7 (transient, pCIneo)", "settings": "FIG. 4B", "method": "(§4) FIGS. 4A and 4B graphically illustrate that PKs bind the PKR1 and PKR2 with different affinities. COS-7 cells transiently expressing PKR1 or PKR2 were seeded to 96-well plates. ^125I-labeled PK2-f was added to each well at a final concentration of 100 pM. Different concentrations of PK1, PK2 or PK2β were added to the assays as the competitors. All assays were performed in triplicates. The results are mean values (±S.E.M) of triplicates. FIG. 4A provides the results of the binding assay using PKR1 expressing cells.\n(§5) Expression, purification, and iodination of C-terminal FLAG-tagged PK2. C-terminal FLAG-tagged PK2 (PK2-f) was constructed as described (Soga et al., 2002). Two primers P9: ATCGAGAATTCGCCACCATGAGGAGCCTGTGCTGCGCCC (SEQ.ID.NO.:11) and P10: GGATCCCTACTTATCGTCGTCATCCTTATAATCCTTTTGGGCTAAACA (SEQ.ID.NO.:12) were used to amplify human whole brain cDNA (Clontech). The PCR-amplified PK2-f was cloned into a mammalian expression vector pCMV-sport1 (Invitrogen). The resulting clones were sequenced to confirm the identities and transfected into COS-7 cells using LipofectAmine (Invitrogen). Three days after transfection, the cell culture supernatant was collected and run through an ANTI-FLAG M2 agarose (Sigma) affinity column. The column was washed with PBS and eluted with […] Glycine HCl, pH 3.0. The eluted protein fraction was immediately neutralized with 1 M Tris-HCl, pH 8.0 and then further purified by reverse-phase HPLC using a C4 column (Vydac). The purified recombinant PK2-f protein was iodinated using Iodogen reagent (Pierce, Rockford, Ill.) and ^125I-NaI (PerkinElmer, Boston, Mass.) as described by Pierce. The iodinated PK2-f was purified by a G-50 (Amersham Pharmacia Biotech) gel filtration column.\n(§6) Radio-Ligand Binding Assays. PKR1 and PKR2 in the expression vector pCIneo (Promega) were transfected into COS-7 cells using LipofectAmine (Invitrogen). […] After the plates were washed three times with ice cold PBS, Microscint-40 (Packard, Meriden, Conn.) was added and the plates were counted on a Topcount (Packard)."}, "PKR1": {"molecular_target": "PKR1 (Homo sapiens, UniProt Q8TCW9)", "sequence (Q8TCW9 whole entry)": "as the sequence (Q8TCW9 whole entry) above", "test": "Radioligand competition binding assay (125I-PK2-f), PKR1 expressing COS-7 cells", "design": "The full-length cDNA coding regions for both PKR1 and PKR2 were PCR-amplified from human fetal brain cDNA; expressed in transfected cells; host or cells: COS-7 (transient, pCIneo)", "settings": "FIG. 4A", "method": "as §4, §5, §6"}}, "note": "Ends that are not written are not given here."}
{"molecule": "human prokineticin 2 (PK2) (ligand, Made in COS-7 cells with an N-terminal FLAG tag that was removed with enterokinase, then HPLC purified; also called mammalian Bv8) AVITGACDKDSQCGGGMCCAVSIWVKSIRICTPMGKLGDSCHPLTRKVPFFGRRMHHTCPCLPGLACLRTSFNRFICLAQK", "values": [{"measurement": "IC50", "setting": "[1]", "value": 4.5, "unit": "nM"}, {"measurement": "IC50", "setting": "[2]", "value": 6.4, "unit": "nM"}, {"measurement": "EC50 for Ca2+ mobilization in PKR expressing HEK 293 cells", "setting": "[3]", "value": 0.8, "unit": "nM"}, {"measurement": "EC50 for Ca2+ mobilization in PKR expressing HEK 293 cells", "setting": "[4]", "value": 3.6, "unit": "nM"}, {"measurement": "EC50 for stimulation of cAMP accumulation (β-galactosidase reporter), SK-N-MC cells", "setting": "[5]", "value": 1.27, "unit": "nM"}, {"measurement": "EC50 for stimulation of cAMP accumulation, HEK 293 cells", "setting": "[5]", "value": 3.17, "unit": "nM"}, {"measurement": "EC50 for stimulation of cAMP accumulation (β-galactosidase reporter), SK-N-MC cells", "setting": "[6]", "value": 12.1, "unit": "nM"}, {"measurement": "EC50 for stimulation of cAMP accumulation, HEK 293 cells", "setting": "[6]", "value": 41, "unit": "nM"}]}
{"molecule": "125I-labeled C-terminal FLAG-tagged PK2 (ligand, 125I on the Tyr in the FLAG-tag, Expressed from human PK2 cDNA with its own signal peptide and secreted by COS-7 cells; also called PK2-f; not shown: C-terminal FLAG tag) AVITGACDKDSQCGGGMCCAVSIWVKSIRICTPMGKLGDSCHPLTRKVPFFGRRMHHTCPCLPGLACLRTSFNRFICLAQK", "values": [{"measurement": "binding result", "setting": "[7]", "value": "binds"}, {"measurement": "binding result", "setting": "[8]", "value": "binds"}]}
{"molecule": "prokineticin 2 (protein, recombinant human PK2 peptide expressed in COS-7 cells) AVITGACDKDSQCGGGMCCAVSIWVKSIRICTPMGKLGDSCHPLTRKVPFFGRRMHHTCPCLPGLACLRTSFNRFICLAQK", "values": [{"measurement": "cAMP accumulation in PKR2 expressing HEK293 cells, in words", "setting": "PKR2 [9]", "value": "high-potency ligands"}, {"measurement": "Binding to PKR2, in words", "setting": "PKR2 [10]", "value": "high affinity"}, {"measurement": "Binding to PKR1, in words", "setting": "PKR1", "value": "high affinities"}]}
{"molecule": "human PK2β mature peptide (ligand, ends and bridges not checked; cysteine pairing not given here, Proteolytically processed form of PK2L secreted by COS-7 cells; The FLAG tag was removed with enterokinase; also called processed product of PK2L) AVITGACDKDSQCGGGMCCAVSIWVKSIRICTPMGKLGDSCHPLTRKNNFGNGRQE", "values": [{"measurement": "IC50", "setting": "[1]", "value": 34.6, "unit": "nM"}, {"measurement": "EC50 for Ca2+ mobilization in PKR expressing HEK 293 cells", "setting": "[3]", "value": 1.5, "unit": "nM"}, {"measurement": "EC50 for Ca2+ mobilization in PKR expressing HEK 293 cells", "setting": "[4]", "value": 80, "unit": "nM"}, {"measurement": "EC50 for stimulation of cAMP accumulation, HEK 293 cells", "setting": "[5]", "value": 23.4, "unit": "nM"}, {"measurement": "EC50 for stimulation of cAMP accumulation, HEK 293 cells", "setting": "[6]", "value": "> 1000", "unit": "nM"}]}
{"molecule": "human prokineticin 1 (PK1) mature peptide (ligand, UniProt P58294 20-105, looked up, mature; also called EG-VEGF) AVITGACERDVQCGAGTCCAISLWLRGLRMCTPLGREGEECHPGSHKVPFFRKRKHHTCPCLPNLLCSRFPDGRYRCSMDLKNINF", "values": [{"measurement": "IC50", "setting": "[1]", "value": 27.6, "unit": "nM"}, {"measurement": "IC50", "setting": "[2]", "value": 52.2, "unit": "nM"}, {"measurement": "EC50 for Ca2+ mobilization in PKR expressing HEK 293 cells", "setting": "[3]", "value": 1.1, "unit": "nM"}, {"measurement": "EC50 for Ca2+ mobilization in PKR expressing HEK 293 cells", "setting": "[4]", "value": 7.7, "unit": "nM"}, {"measurement": "EC50 for stimulation of cAMP accumulation (β-galactosidase reporter), SK-N-MC cells", "setting": "[5]", "value": 8.34, "unit": "nM"}, {"measurement": "EC50 for stimulation of cAMP accumulation, HEK 293 cells", "setting": "[5]", "value": 16.8, "unit": "nM"}, {"measurement": "EC50 for stimulation of cAMP accumulation (β-galactosidase reporter), SK-N-MC cells", "setting": "[6]", "value": 20, "unit": "nM"}, {"measurement": "EC50 for stimulation of cAMP accumulation, HEK 293 cells", "setting": "[6]", "value": 60, "unit": "nM"}]}
{"molecule": "125I-labeled human PK1 (ligand, UniProt P58294 20-105, looked up, 125I at Tyr75, mature; Told of only in the discussion, as an attempted radioligand) AVITGACERDVQCGAGTCCAISLWLRGLRMCTPLGREGEECHPGSHKVPFFRKRKHHTCPCLPNLLCSRFPDGRYRCSMDLKNINF", "values": [{"measurement": "binding result", "setting": "[7]", "value": "binds"}, {"measurement": "binding result", "setting": "[8]", "value": "binds"}]}
{"molecule": "prokineticin 1 (protein, recombinant human PK1 mature peptide, also known as endocrine gland vascular endothelial growth factor) AVITGACERDVQCGAGTCCAISLWLRGLRMCTPLGREGEECHPGSHKVPFFRKRKHHTCPCLPNLLCSRFPDGRYRCSMDLKNINF", "values": [{"measurement": "cAMP accumulation in PKR2 expressing HEK293 cells, in words", "setting": "PKR2 [9]", "value": "high-potency ligands"}, {"measurement": "Binding to PKR2, in words", "setting": "PKR2 [10]", "value": "high affinity"}, {"measurement": "Binding to PKR1, in words", "setting": "PKR1", "value": "high affinities"}]}
